In US9377466B2, “Compounds and methods” (Modpro AB, priority 2010, dated 2016):

How the values were obtained:
[1] = CD spectroscopy, mean residue ellipticity of the sixteen scaffold polypeptides; format: physicochemical; settings: error ±1000
Experimental: The mean residue ellipticities at 222 nm, [θ]222, □ of the sixteen scaffold polypeptides were recorded at two concentrations, approximately 30 μM and approximately 1 μM, to characterize the state of aggregation, cf.
The degree of helix formation is related to the monomer-dimer equilibrium since monomers are unordered with low helical content whereas dimers are highly helical. […] While the ^1H NMR spectra have not been recorded of all sequences and of all polypeptide conjugates, it is likely that the sequences presented here are best described as molten globules.

α-casein = assay: Three-step fluorescence titration with α-casein (microtitre plate); format: binding; settings: polypeptide without PP1; binder in the absence of Zn^2+ ions
Experimental: In a preliminary and simple assay executable in microtitre plate format, each of the eight binder candidates at a concentration of 500 nM in 10 mM HEPES buffer and 150 mM NaCl at pH 7.2, equipped with the fluorophor 7-methoxycoumarin-3-carboxylic acid, were titrated with α-casein in three steps (FIG. 8). Concentrations of peptides were determined from the absorbance of the coumarine probe and stock solutions at concentrations of 5 μM were prepared from which aliqiuots were transferred to the microtitre plate. […] The fluorescence emission spectre were recorded in the absence of protein, and in the presence of 500 nM, 1000 nM and 1500 nM protein to determine in a qualitative way whether or not binding was saturated at 500 nM concentration of both binder and protein. Saturation within experimental error at those concentrations is compatible with low nM affinity and tight binding.
All fluorescence experiments were conducted in 96 well polystyrene plates. All readings were performed by plate reader Molecular Devices Spectra max GEMINI XPS at 25° C. Each plate contained 300 μL of analyte. All polystyrene plates were specially prepared prior the measurements in order to minimize the unspecific binding of the analyte. All wells were filled with 1% aqueous solution of Pluronic and left overnight. […]

phosphopeptides = settings: literature; cited from earlier work

Molecule | [θ]222 at high concentration ([1]; high concentration 30-230 μM as listed per peptide) [deg cm^2 dmol^−1] | [θ]222 at low concentration ([1]; low concentration 1-5 μM as listed per peptide) [deg cm^2 dmol^−1] | effect of α-casein on fluorescence emission spectrum, negative controls (α-casein) | dissociation constants for phosphopeptides (phosphopeptides)
4-C10L17: SEQ ID NO: 8 NAADLEARIKHLRERLKARGPRDAAQLAEQLARAFERFARAG | −19500 | −11800 | No effect | –
O=C(O)c1cc(CN(Cc2ccccn2)Cc2ccccn2)cc(CN(Cc2ccccn2)Cc2ccccn2)c1 [PP1, 3,5-Bis[[bis(2-pyridylmethyl)amino]methyl]benzoic acid] | – | – | – | μM range
